Laboratory results reported in publication PMC6274671 (International Journal of Molecular Sciences, 2018).

Molecular target: T1, bovine serum albumin (Bos taurus, UniProt P02769)
T1 construct: also called BSA
Test: ELISA
Conditions: both partners purified

T1 sequence (P02769 25-607): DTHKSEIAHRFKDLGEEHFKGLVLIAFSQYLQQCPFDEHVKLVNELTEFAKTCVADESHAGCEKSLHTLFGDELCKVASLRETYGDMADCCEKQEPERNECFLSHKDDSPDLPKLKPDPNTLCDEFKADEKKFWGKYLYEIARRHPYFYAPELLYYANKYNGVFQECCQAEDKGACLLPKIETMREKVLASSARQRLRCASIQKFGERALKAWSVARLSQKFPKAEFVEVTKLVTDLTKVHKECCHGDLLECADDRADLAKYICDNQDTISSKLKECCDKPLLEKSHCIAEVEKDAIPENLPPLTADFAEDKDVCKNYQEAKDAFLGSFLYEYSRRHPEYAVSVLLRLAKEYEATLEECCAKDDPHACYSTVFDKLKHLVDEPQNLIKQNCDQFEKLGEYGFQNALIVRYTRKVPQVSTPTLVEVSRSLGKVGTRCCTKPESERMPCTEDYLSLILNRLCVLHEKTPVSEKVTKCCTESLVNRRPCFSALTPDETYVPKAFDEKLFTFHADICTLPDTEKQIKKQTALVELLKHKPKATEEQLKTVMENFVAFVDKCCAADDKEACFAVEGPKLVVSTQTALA

B1: fluorescein-specific VHH-D4 (VHH)
VHH: QVQLVESGGALVQPGGSLRLSCAASGFTFGSFSMSWYRQATGKEREWVAGLSAGSSSTYYADSVKGRFTISRDNARNTVYLQMNSLKPEDTAVYYCARRTNTSSGSAGSFSTCIDDWGQGTQVTVSS
notes: also called clone D4
- binding result: no binding
